Results taken from the supplement of paper PMC10126150.
± gives the standard deviation of the averaged measurements.

Tested on: ATP
Experiment: switch fluorescence ratio, 500 uM ATP over buffer (Cy3 cluster intensity, sum of 5 cycles each) (fold (ratio)); higher = stronger signal-on switching upon ATP binding; sequences stand for … in TCGTCGGCAGCGTCAGATGTGTATAAGAGACAGTTTTTTTTTTTTTTTTTTTTTTTTT…TC
Details: aptamer strand: ATP DNA aptamer (quencher-CACCTGGGGGAGTATTGCGGAGGAAGG + anchor), 100 nM annealed; ATP concentration: 500 uM
Method in brief: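 Between each of five buffer/ATP cycles, the flow-cell was stripped with NaOH and re-annealed. Each cycle imaged Cy3-labelled switching-strand clusters, annealed to 100 nM quencher-labelled ATP aptamer on a modified Illumina MiSeq flow-cell, first in selection buffer and then after 15 min with 500 uM ATP at 22 °C. The fluorescence ratio is summed target-cycle over summed buffer-cycle Cy3 intensity per cluster, averaged per switch-domain sequence, with clusters outside 100-1000 RFU excluded.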
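Also: ATP exposure 15 min at 22 °C before imaging.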

| Sequence | switch fluorescence ratio |
| --- | --- |
| TGTGATTGGG | 0.988 ± 0.017 |
| GCTGTAAGTT | 0.9897 ± 0.0067 |
| GTGGTTGGTA | 1.02 ± 0.03 |
| GGGTCGCCTG | 0.992 ± 0.033 |
| GTGTCAATTT | 1.13 ± 0.17 |
| CGGCCTTGCA | 1.026 ± 0.0095 |
| CATGCGGGGG | 1.01 ± 0.013 |
| TTTTAAGGG | 1.02 ± 0.022 |
| TATGTACACA | 1.02 ± 0.059 |
| GCTTTCATTG | 1.014 ± 0.0046 |
| TTGTATTTA | 1.01 ± 0.05 |
| ATTTTTCTAG | 1.01 ± 0.03 |
| ACACCTGAGT | 1.16 ± 0.011 |
| TGATATCCGA | 1.04 ± 0.013 |
| GTGGAACCTT | 1.24 ± 0.2 |
| CAATACTATA | 1.11 ± 0.067 |
| CCAGACGCGG | 1.14 ± 0.051 |
| ATTGTGATCT | 0.989 ± 0.021 |
| ATCGTGATGG | 1.03 ± 0.04 |
| AAGAGATACG | 1.04 ± 0.059 |
| CTTGCTGGTT | 0.999 ± 0.028 |
| TCATATGGTG | 1.03 ± 0.038 |
| TAGGAGTAAT | 1.012 ± 0.0047 |
| TTTTTGTATC | 0.968 ± 0.022 |
| AGCAGTTTTT | 0.996 ± 0.028 |
| TTTAAGGGAC | 1.05 ± 0.021 |

| Sequence | switch fluorescence ratio |
| --- | --- |
| TTAGGGAGGG | 0.998 ± 0.032 |
| ATTGGGCGAG | 0.993 ± 0.013 |
| TTAGCTGTGC | 1.02 ± 0.067 |
| AGCTTGAGGT | 0.9941 ± 0.0019 |
| AGTGAGTGCT | 0.9751 ± 0.0059 |
| GTCCACTGTT | 0.996 ± 0.024 |
| CAATGATGAC | 1.01 ± 0.018 |
| CGCTGAGCTG | 1 ± 0.029 |
| TCGGACGGGG | 1.03 ± 0.015 |
| GGTTCGAGAC | 1.01 ± 0.025 |
| GCCGGGATTG | 0.976 ± 0.029 |
| CGGCTTGTTG | 1.01 ± 0.017 |
| CAAATAGGCT | 0.984 ± 0.028 |
| GCTGGGGGAT | 1 ± 0.044 |
| GTATTTTAGG | 0.999 ± 0.053 |
| AATTTTGCGG | 1.01 ± 0.038 |
| AGCGTGTGTG | 1.05 ± 0.059 |
| GATTGGCGAG | 0.998 ± 0.011 |
| TTTCATGGGT | 1 ± 0.018 |
| TCAGGACGGC | 0.99 ± 0.044 |
| TCGTATTTTC | 0.994 ± 0.058 |
| TCGTGTACTG | 1.041 ± 0.006 |
| TTTATTGAGG | 1.03 ± 0.011 |
| CAAAAAGGGG | 0.964 ± 0.039 |
| ATCACAATTT | 1.04 ± 0.017 |
| TATGATAGCC | 1.04 ± 0.037 |

| Sequence | switch fluorescence ratio |
| --- | --- |
| CTAGAAAGC | 1.02 ± 0.02 |
| CGTTGTTAGC | 0.992 ± 0.022 |
| TTGATGGGAC | 1.12 ± 0.021 |
| TTCGTGATAG | 1.308 ± 0.0028 |
| TTGGGGGAAC | 1 ± 0.014 |
| CCAGGTGTTG | 3.12 ± 0.44 |
| GCGCCAAGGA | 1.08 ± 0.09 |
| TCTGATTGGT | 0.9945 ± 0.0034 |
| GGTGATGGGT | 0.971 ± 0.04 |
| GGGTGCAAGC | 1.058 ± 0.0049 |
| CGGAATTCAC | 1.39 ± 0.017 |
| CAGTGATGGA | 1.007 ± 0.0046 |
| ACGCTTGGGA | 0.998 ± 0.048 |
| GCTTTGGTTT | 0.983 ± 0.022 |
| GGGTTGTGAA | 0.994 ± 0.037 |
| CATGATGTGT | 1 ± 0.042 |
| GGTGTGAGAG | 1.02 ± 0.038 |
| TACGTACGTT | 1.41 ± 0.062 |
| AACTTTTTAA | 1.01 ± 0.012 |
| TCCCGTTATT | 1.01 ± 0.025 |
| TTAGGCGGCA | 0.974 ± 0.034 |
| TGATTGTAAT | 0.9655 ± 0.0069 |
| AACCTCCGTT | 1.71 ± 0.064 |
| GGCGCCGCTG | 1.016 ± 0.003 |
| TGCGTTTCGA | 1.03 ± 0.025 |
| AGCGCCGGGG | 1.03 ± 0.015 |

| Sequence | switch fluorescence ratio |
| --- | --- |
| CCTATTATTA | 1.02 ± 0.028 |
| CTTCTATGTT | 0.984 ± 0.002 |
| AGAGCCGGGA | 0.988 ± 0.043 |
| CTAATATTAT | 1.01 ± 0.027 |
| ATGTACGAGA | 1.06 ± 0.019 |
| GTGGATATAG | 0.99333 ± 0.00046 |
| CAGGTGCGTT | 1.58 ± 0.028 |
| ATTTTTCGTT | 1 ± 0.03 |
| GCGGAGGGGC | 1.0106 ± 3e-05 |
| TTCCGGGCTA | 1.47 ± 0.62 |
| CTATGATCTG | 0.989 ± 0.065 |
| AGTGTTGGGG | 0.998 ± 0.017 |
| GGCCTCAAAT | 1.01 ± 0.037 |
| ACATTTGTGG | 1.01 ± 0.021 |
| ATTCTCCATT | 1.0229 ± 0.00088 |
| GCATTAATGG | 1.04 ± 0.051 |
| TTTACTCGCA | 1.3 ± 0.12 |
| TCATGATAGT | 0.9825 ± 0.0081 |
| GTGTAGGGGA | 1.0019 ± 0.00055 |
| AATCAGTGTA | 1 ± 0.051 |
| TAGGGGTTGG | 0.987 ± 0.03 |
| CTACCTCCGA | 3.16 ± 0.29 |
| GATGTGATTC | 1.04 ± 0.027 |
| TTGATAGCCT | 1.06 ± 0.059 |
| GGTTAAGAGG | 1.02 ± 0.041 |
| AAATTTGTTG | 0.992 ± 0.011 |

| Sequence | switch fluorescence ratio |
| --- | --- |
| AGAGAACGCT | 0.967 ± 0.035 |
| CTTTCGTGGA | 1 ± 0.022 |
| TTTTTGGGAG | 1.01 ± 0.024 |
| AGGAGAAAAG | 1.22 ± 0.29 |
| GGGAGATTGT | 0.999 ± 0.026 |
| GGGGGGATAT | 1.05 ± 0.097 |
| GCCAGGGACG | 1.02 ± 0.028 |
| CAGTTAGATT | 1.01 ± 0.028 |
| ATTAAGATGT | 1.002 ± 0.0049 |
| AAGCTAAAAT | 0.996 ± 0.053 |
| CAGAGGGAGG | 1.02 ± 0.033 |
| TTTATTCGGT | 1.01 ± 0.074 |
| TGGATATTTA | 0.978 ± 0.012 |
| ATATTGTAAC | 0.98 ± 0.013 |
| TAGTTATCGA | 0.997 ± 0.0069 |
| CAGGTATAAG | 1.01 ± 0.061 |
| AACTGAAGTC | 0.976 ± 0.01 |
| TTGTGTGGTT | 0.963 ± 0.038 |
| GCACCAATT | 1.06 ± 0.072 |
| TTCGGAGTCT | 0.985 ± 0.094 |
| ACAGCGGACG | 1.02 ± 0.031 |
| TGCGGGCCAT | 1.027 ± 0.0067 |
| CCACTGGGTG | 4.394 ± 0.031 |
| CGGGCCGGGG | 1.02 ± 0.033 |
| CAGGGGTGTG | 0.996 ± 0.0076 |
| TGGAATGCGC | 1.24 ± 0.36 |

| Sequence | switch fluorescence ratio |
| --- | --- |
| GGTGTCGTTT | 1.02 ± 0.024 |
| AGGGAGGCGG | 0.974 ± 0.032 |
| ACTCTGGGAG | 1.03 ± 0.022 |
| AGAATCACTG | 1.08 ± 0.04 |
| TTTAGGTCAA | 0.9943 ± 0.0031 |
| TAGGCATCGT | 0.969 ± 0.019 |
| GAAACAATTG | 0.9897 ± 0.0075 |
| CGGTGAGGGT | 0.9863 ± 0.0071 |
| CCTGGGGAAA | 0.946 ± 0.021 |
| GTTTCGTCCA | 2.1 ± 1.6 |
| CAAGGATTAA | 1.006 ± 0.0012 |
| AAAAGAGGCA | 1.02 ± 0.025 |
| ATGGAAGTGG | 0.9908 ± 0.007 |
| GACTTATGGG | 1.04 ± 0.033 |
| TTTAATAATT | 1.03 ± 0.032 |
| CGTGCTCTAC | 1.5 ± 0.068 |
| TTGTTAGGAT | 1.07 ± 0.062 |
| TGTTGTATGC | 0.9617 ± 0.0042 |
| ACGACTGTTA | 1.04 ± 0.02 |
| GATCGGTAAA | 0.999 ± 0.013 |
| TCATTCAAGT | 1.04 ± 0.011 |
| ATACTGGTAG | 1.02 ± 0.047 |
| CCTTATTGTC | 0.997 ± 0.024 |
